Data from patent CN109897111A (HANGZHOU HANSI BIOLOGICAL MEDICINE CO LTD, dated 2019).

How the values were obtained:
hPD-1-his抗原 = hPD-1-his抗原 (human, UniProt Q15116 25-167, limits assumed); assay: ELISA, hPD-1-his coated 0.25 μg/ml
hPD-1-hIgGFc抗原 [1] = target: T1, hPD-1-hIgGFc抗原 (human, UniProt Q15116 25-167, limits assumed); assay: competition ELISA, hPD-1-hIgGFc coated, competitor PDL2-his tag 0.6 μg/ml
hPD-1-hIgGFc抗原 [2] = target: T1, hPD-1-hIgGFc抗原; assay: competition ELISA, hPD-1-hIgGFc coated, competitor PDL1-mIgG2aFc 0.6 μg/ml

T1 sequence (Q15116 25-167 limits assumed): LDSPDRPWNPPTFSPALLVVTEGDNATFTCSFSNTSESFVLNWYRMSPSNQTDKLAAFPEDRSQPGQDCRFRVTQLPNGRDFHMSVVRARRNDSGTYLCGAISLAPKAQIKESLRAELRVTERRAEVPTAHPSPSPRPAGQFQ
Sequence of hPD-1-his抗原 (Q15116 25-167 limits assumed): as above

EC50 (hPD-1-his抗原): 0.05 nM | IC50 (hPD-1-hIgGFc抗原 [1]): 2.7 nM | IC50 (hPD-1-hIgGFc抗原 [2]): 1 nM
B1: 人源化抗体H8 (抗PD-1的IgG类抗体) (antibody, V domains shown)
VH: EVQLVQSGGGLVQPGGSLKLSCAASGFTFSSYGMSWVRQAPGKGLDWVATISGGGRDTYYPDSVKGRFTISRDNSKNNLYLQMNSLRAEDTALYYCARQKGEAWFAYWGQGTLVTVSA
VL: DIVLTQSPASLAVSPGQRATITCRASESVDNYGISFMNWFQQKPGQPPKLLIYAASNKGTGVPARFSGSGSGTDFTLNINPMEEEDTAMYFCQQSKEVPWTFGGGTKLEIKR
notes: HX009-5 is H8 with linker-SIRPA added to the C-terminus of the heavy chain, and both share the light chain; also called HX008
